Experimental findings from patent US20040106545A1 (MCGILL UNIVERSITY, published 2004) are described below.

Like-named read-outs stand apart in the source and are kept apart here. Positions of bridges follow the written chain, without caps; N, C: chain ends.

Assay in all cases: cell-based or functional assay
Test [1] has as its target T1, chick N-cadherin expressed on transfected 3T3 cells (chick, UniProt P10288 165-912).
T1 sequence (looked up): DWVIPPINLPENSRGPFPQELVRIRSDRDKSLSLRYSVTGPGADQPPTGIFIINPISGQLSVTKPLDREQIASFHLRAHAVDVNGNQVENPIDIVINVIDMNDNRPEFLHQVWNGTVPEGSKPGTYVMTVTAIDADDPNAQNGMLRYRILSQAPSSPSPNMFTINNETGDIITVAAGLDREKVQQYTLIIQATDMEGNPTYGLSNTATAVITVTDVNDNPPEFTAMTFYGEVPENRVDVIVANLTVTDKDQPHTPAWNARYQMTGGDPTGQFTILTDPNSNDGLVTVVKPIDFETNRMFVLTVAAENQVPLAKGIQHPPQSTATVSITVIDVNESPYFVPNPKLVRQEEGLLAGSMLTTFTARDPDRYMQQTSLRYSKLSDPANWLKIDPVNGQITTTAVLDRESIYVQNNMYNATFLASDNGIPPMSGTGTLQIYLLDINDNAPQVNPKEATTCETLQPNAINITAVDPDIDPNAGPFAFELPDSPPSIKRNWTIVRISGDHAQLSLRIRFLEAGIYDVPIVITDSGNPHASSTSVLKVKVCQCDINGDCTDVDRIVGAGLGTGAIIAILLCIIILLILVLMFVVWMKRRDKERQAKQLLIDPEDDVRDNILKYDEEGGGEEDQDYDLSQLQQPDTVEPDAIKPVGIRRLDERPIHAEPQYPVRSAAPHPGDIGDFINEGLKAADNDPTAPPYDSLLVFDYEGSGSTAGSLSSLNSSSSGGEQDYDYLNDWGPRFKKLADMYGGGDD

The target of test [2] is T2, E-cadherin on Madin Darby canine kidney (MDCK) cells (canine (MDCK cells), UniProt F1PAA9 157-885).
T2 sequence (looked up): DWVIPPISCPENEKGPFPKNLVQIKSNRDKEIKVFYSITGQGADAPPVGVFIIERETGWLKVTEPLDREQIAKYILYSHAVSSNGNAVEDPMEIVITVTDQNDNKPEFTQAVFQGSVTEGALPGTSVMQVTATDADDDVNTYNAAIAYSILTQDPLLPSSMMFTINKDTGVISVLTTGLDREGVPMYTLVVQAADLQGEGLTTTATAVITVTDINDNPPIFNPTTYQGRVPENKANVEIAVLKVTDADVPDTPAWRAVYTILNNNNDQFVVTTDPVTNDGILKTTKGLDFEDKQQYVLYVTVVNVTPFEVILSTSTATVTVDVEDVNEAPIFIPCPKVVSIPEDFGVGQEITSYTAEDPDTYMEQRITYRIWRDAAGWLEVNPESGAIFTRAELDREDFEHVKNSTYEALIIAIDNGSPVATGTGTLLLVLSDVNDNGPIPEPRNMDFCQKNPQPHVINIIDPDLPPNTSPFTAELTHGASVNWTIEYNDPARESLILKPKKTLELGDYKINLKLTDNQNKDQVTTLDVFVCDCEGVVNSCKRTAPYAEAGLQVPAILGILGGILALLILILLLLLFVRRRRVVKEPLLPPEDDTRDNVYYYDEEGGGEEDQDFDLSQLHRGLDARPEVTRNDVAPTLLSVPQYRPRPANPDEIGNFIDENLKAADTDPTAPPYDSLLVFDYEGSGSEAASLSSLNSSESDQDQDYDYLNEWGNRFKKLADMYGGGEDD

The target of test [3] is T1, chick N-cadherin expressed on …. This is another data set of the same source.
Test [4] has the same target. The source holds these as a separate data set.
The target in test [5] is human L1 expressed on transfected 3T3 cells (human, UniProt P32004 20-1257).
For test [6], the target named is T1, chick N-cadherin expressed on …. This is another data set of the same source.
The target in test [7] is T2, E-cadherin on Madin Darby canine kidney …. This is another data set of the same source.
Test [8] concerns the target N-cadherin expressed on transfected 3T3 cells (Examples 2 and 21).
Test [9] addresses T1, chick N-cadherin expressed on …. This is another data set of the same source.
Test [10] shares this target. This is another data set of the same source.

human L1 expressed on transfected 3T3 cells, sequence (P32004 20-1257): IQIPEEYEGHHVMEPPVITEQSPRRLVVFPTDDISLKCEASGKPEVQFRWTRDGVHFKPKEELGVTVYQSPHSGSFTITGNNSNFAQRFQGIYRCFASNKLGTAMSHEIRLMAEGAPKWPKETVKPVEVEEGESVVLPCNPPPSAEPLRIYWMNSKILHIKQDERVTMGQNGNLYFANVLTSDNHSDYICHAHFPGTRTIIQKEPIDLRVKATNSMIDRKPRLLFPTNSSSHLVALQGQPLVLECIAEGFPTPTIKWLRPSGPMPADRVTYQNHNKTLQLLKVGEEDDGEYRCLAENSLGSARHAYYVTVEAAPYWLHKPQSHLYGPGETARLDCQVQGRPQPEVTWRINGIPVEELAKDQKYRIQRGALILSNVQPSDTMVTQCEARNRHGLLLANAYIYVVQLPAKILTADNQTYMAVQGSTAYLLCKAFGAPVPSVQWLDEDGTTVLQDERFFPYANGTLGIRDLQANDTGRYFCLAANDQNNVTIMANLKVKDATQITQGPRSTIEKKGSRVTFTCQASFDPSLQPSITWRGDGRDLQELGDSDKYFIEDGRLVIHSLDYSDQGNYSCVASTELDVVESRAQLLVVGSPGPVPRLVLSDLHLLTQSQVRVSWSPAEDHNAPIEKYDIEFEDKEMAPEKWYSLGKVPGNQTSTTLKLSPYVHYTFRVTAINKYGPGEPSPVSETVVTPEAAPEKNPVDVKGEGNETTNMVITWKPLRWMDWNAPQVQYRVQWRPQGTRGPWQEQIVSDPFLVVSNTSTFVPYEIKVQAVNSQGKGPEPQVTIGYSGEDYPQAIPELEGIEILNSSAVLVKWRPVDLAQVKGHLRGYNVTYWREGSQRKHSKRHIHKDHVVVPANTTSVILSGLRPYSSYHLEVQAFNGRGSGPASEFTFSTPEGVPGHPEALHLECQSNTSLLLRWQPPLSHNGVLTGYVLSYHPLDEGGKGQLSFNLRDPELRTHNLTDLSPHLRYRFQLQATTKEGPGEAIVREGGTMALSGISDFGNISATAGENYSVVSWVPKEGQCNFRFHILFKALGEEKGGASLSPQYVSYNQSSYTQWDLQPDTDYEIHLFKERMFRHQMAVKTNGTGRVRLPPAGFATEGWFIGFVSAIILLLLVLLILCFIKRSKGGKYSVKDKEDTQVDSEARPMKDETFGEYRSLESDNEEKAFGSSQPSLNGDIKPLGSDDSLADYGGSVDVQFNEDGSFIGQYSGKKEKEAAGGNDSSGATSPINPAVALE

With Ac-CHAVPC-NH2 (disulfide 1-6 (inferred)) [N-Ac-CHAVPC-NH2], in test [1], the “% inhibition of neurite outgrowth (peptide 125 µg/mL)” value worked out at 58% and the “EC50 for inhibition of neurite outgrowth” value was found to be 185 µM.
In the case of Ac-CHAVCT-NH2 (disulfide 1-5 (inferred)) [N-Ac-CHAVC-T-NH2], the “EC50, decrease of electrical resistance across MDCK cell monolayer” value (from here on “EC50, decrease”) in test [2] was 480 µM. Moreover, the “Percent Inhibition of N-cadherin dependent neurite outgrowth (peptide 250 µg/ml)” value (“Percent Inhibition” for short) in test [3] stood at 23.7%.
For Ac-CHAVYC-NH2 (disulfide 1-6 (inferred)) [N-Ac-CHAVYC-NH2], the “EC50 for inhibition of neurite outgrowth” value in test [4] was 80 µM; in [1], 128 µM. For the same molecule, the “% inhibition of neurite outgrowth (peptide 125 µg/mL)” value in test [1] worked out at 64.9%.

B1: N-Ac-S-CHAVC-NH2 (peptide)
peptide: Ac-SCHAVC-NH2
modifications: disulfide 2-6
SMILES: CC(=O)N[C@@H](CO)C(=O)N[C@H]1CSSC[C@@H](C(N)=O)NC(=O)[C@H](C(C)C)NC(=O)[C@H](C)NC(=O)[C@H](Cc2c[nH]cn2)NC1=O
With B1, in test [2], the “EC50, decrease” value was 490 µM.
For Ac-CHAVDIC-NH2 (disulfide 1-7 (inferred)) [N-Ac-CHAVDIC-NH2], in test [1], the “% inhibition of neurite outgrowth (peptide 125 µg/mL)” value turned out to be 88.3% and the “EC50 for inhibition of neurite outgrowth” value stood at 60 µM. Besides, the “% Inhibition of L1 Response (peptide 125 µg/ml)” value (shortened to “% Inhibition of L1 Response”) in test [5] was determined as 6%. In test [6], the “% Inhibition of N-Cadherin Response (peptide 125 µg/ml)” value (“% Inhibition of N-Cadherin Response” below) was 88.3%.
On to Ac-CFSHAVC-NH2 (disulfide 1-7 (inferred)) [N-Ac-CFSHAVC-NH2], for which the “EC50, decrease” value in [7] amounted to 22 µM.

B2: H-CAHAVDC-NH2 (peptide)
peptide: H-CAHAVDC-NH2
modifications: disulfide 1-7
SMILES: CC(C)[C@@H]1NC(=O)[C@H](C)NC(=O)[C@H](Cc2c[nH]cn2)NC(=O)[C@H](C)NC(=O)[C@@H](N)CSSC[C@@H](C(N)=O)NC(=O)[C@H](CC(=O)O)NC1=O
On to B2, for which the “% Inhibition of neurite outgrowth, 250 µg/mL (rat neurons)” value (from here on “% Inhibition … (rat neurons)”) in test [8] was determined as 0%. Also, the “% inhibition of N-cadherin dependent neurite outgrowth (peptide 250 µg/mL)” value (“% inhibition … (peptide 250 µg/mL)” below) in [9] was 1.3%. In addition, the “Percent Inhibition” value in test [10] was 1.3%.
In the case of Ac-CHAVC-NH2 (disulfide 1-5 (inferred)) [N-Ac-CHAVC-NH2], the “EC50 for inhibition of the N-cadherin response (neurite outgrowth)” value in [4] is 220 µM. The “% Inhibition … (rat neurons)” value in test [8] was found to be 65%. Also, in test [7], the “EC50, decrease” value worked out at 270 µM. Also, the “% inhibition … (peptide 250 µg/mL)” value in test [9] is 68.2%. Also, the “% Inhibition of L1 Response” value in test [5] is 41.6%. For the same molecule, the “% Inhibition of N-Cadherin Response” value in [6] came to 33.2%. Besides, the “Percent Inhibition” value in test [10] stood at 68.2%.
Consider H-CAHAVDIC-NH2 (disulfide 1-8 (inferred)) [H-CAHAVDIC-NH2], for which, in test [8], the “% Inhibition … (rat neurons)” value came out at 0%. In addition, the “% inhibition … (peptide 250 µg/mL)” value in [9] was -3.7%. Besides, the “Percent Inhibition” value in [10] is -3.7%.
As to Ac-CHAVCE-NH2 (disulfide 1-5 (inferred)) [N-Ac-CHAVC-E-NH2], the “Percent Inhibition” value in test [3] is 32.5%.

B3: N-Ac-YCHAVC-NH2 (peptide)
peptide: Ac-YCHAVC-NH2
modifications: disulfide 2-6
SMILES: CC(=O)N[C@@H](Cc1ccc(O)cc1)C(=O)N[C@H]1CSSC[C@@H](C(N)=O)NC(=O)[C@H](C(C)C)NC(=O)[C@H](C)NC(=O)[C@H](Cc2c[nH]cn2)NC1=O
Regarding B3, in test [3], the “Percent Inhibition” value is 10.6%.
With Ac-CHAVCS-NH2 (disulfide 1-5 (inferred)) [N-Ac-CHAVC-S-NH2], the “EC50, decrease” value in test [2] worked out at 490 µM. In addition, the “Percent Inhibition” value in [3] is 6.9%.
For Ac-CHAVDC-NH2 (disulfide 1-6 (inferred)) [N-Ac-CHAVDC-NH2], the “% Inhibition … (rat neurons)” value in [8] is 88%. Also, in test [1], the “% inhibition of neurite outgrowth (peptide 125 µg/mL)” value is 77.1% and the “EC50 for inhibition of neurite outgrowth” value amounted to 93 µM. Also, the “% inhibition … (peptide 250 µg/mL)” value in test [9] was found to be 88.4%. Moreover, the “% Inhibition of L1 Response” value in test [5] is 9.6%. Besides, the “% Inhibition of N-Cadherin Response” value in test [6] is 77.1%.
Consider Ac-CHAVCD-NH2 (disulfide 1-5 (inferred)) [N-Ac-CHAVC-D-NH2], for which the “EC50, decrease” value in test [2] was determined as 470 µM. Moreover, in [3], the “Percent Inhibition” value stood at 3.3%.
Turning to Ac-CHAVCSS-NH2 (disulfide 1-5 (inferred)) [N-Ac-CHAVC-SS-NH2], the “EC50, decrease” value in [2] was 430 µM. Further, the “Percent Inhibition” value in test [3] worked out at 37.8%.
Take Ac-CSHAVC-NH2 (disulfide 1-6 (inferred)) [N-Ac-CSHAVC-NH2]: the “% Inhibition … (rat neurons)” value in [8] was found to be 0%. The “EC50, decrease” value in [7] turned out to be 20 µM. Also, the “% inhibition … (peptide 250 µg/mL)” value in test [9] stood at 11%.
H-CHAVC-NH2 (disulfide 1-5 (inferred)) [H-CHAVC-NH2]: the “% Inhibition … (rat neurons)” value in [8] amounted to 0%. For the same molecule, the “% inhibition … (peptide 250 µg/mL)” value in [9] came to 1.7%. Further, in test [10], the “Percent Inhibition” value was determined as 1.7%.
On to Ac-CHAVCY-NH2 (disulfide 1-5 (inferred)) [N-Ac-CHAVC-Y-NH2], for which, in test [4], the “EC50 for inhibition of neurite outgrowth” value came out at 120 µM. The “EC50, decrease” value in test [2] turned out to be 210 µM.

B4: N-Ac-S-CHAVC-S-NH2 (peptide)
peptide: Ac-SCHAVCS-NH2
modifications: disulfide 2-6
SMILES: CC(=O)N[C@@H](CO)C(=O)N[C@H]1CSSC[C@@H](C(=O)N[C@@H](CO)C(N)=O)NC(=O)[C@H](C(C)C)NC(=O)[C@H](C)NC(=O)[C@H](Cc2c[nH]cn2)NC1=O
As for B4, the “Percent Inhibition” value in test [3] was 15.7%.
In the case of Ac-CHAVDINC-NH2 (disulfide 1-8 (inferred)) [N-Ac-CHAVDINC-NH2], in test [1], the “% inhibition of neurite outgrowth (peptide 125 µg/mL)” value amounted to 62% and the “EC50 for inhibition of neurite outgrowth” value amounted to 70 µM. Besides, the “% Inhibition of L1 Response” value in [5] is 1.7%. The “% Inhibition of N-Cadherin Response” value in test [6] is 62%.
